Assay results published in patent US20200199214A1 (Hoffmann-La Roche, published 2020).

How the values were obtained:
human VEGF121 [1] = target: T1, human VEGF121 (human, UniProt P15692-9 27-147); assay: SPR competition: Fab preincubated with 50 nM VEGF121, injected over immobilised hVEGFR2 (competitor); in presence of IL-1beta
T1 construct: No tag is stated for these preparations; Kept apart from VEGF121-His; also called HuVEGF121
T1 sequence (looked up): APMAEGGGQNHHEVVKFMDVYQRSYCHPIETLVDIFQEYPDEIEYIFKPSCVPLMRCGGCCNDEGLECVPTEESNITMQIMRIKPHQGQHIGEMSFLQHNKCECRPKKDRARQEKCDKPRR
Procedure: (§1) As running and dilution buffer, HBS-P+(10 mM HEPES, 150 mM NaCl pH 7.4, 0.05% Surfactant P20) was used.
(§2) For assessing VEGF-receptor binding inhibition, a final concentration of 200 nM of R07200394 or 400 nM antibody 0032 was preincubated with 50 nM VEGF121. For assessing IL-1beta-receptor binding inhibition, a final concentration of 200 nM of R07200394 or 200 nM antibody 0032 was with preincubated with 50 nM IL-1beta. Samples were diluted (1:2) in the corresponding 50 nM VEGF121 or IL-1beta solution.
(§3) The antibody/ligand mixtures were injected onto the VEGFR2 or IL-1R1 surface for 60 s at a flow rate of 5 μl/min. After a dissociation phase for 60 s, the VEGFR2 surface was regenerated by injecting 5 mM NaOH for 60 s, whereas the IL-1R1 surface was regenerated by injecting 10 mM Glycine pH 3.0 followed by 5 mM NaOH for 60 s each. Bulk refractive index differences were corrected by subtracting blank injections and by subtracting the response obtained from the blank control flow cell. For evaluation, the binding response 5 seconds after inject end was taken. The derived response in RU was transformed to a binding response relative to the initial signal corresponding to the ligand(s) without antibody. IC50 values were calculated using a 4 parameter logistic model (XLfit, ID Business Solutions Ltd.)

[2] = target: T2, cynomolgus IL-1 beta (Sino Biological 90010-CNAE) (cynomolgus, UniProt P79182 117-268); assay: SPR, Fab captured via anti-Fab antibody, cynomolgus IL-1beta injected, 1:1 Langmuir fit
T2 sequence (looked up): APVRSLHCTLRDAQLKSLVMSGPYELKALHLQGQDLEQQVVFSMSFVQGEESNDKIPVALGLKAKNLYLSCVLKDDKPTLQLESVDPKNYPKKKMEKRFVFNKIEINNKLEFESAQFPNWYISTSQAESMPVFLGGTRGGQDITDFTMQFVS
Procedure: An anti-Fab capturing antibody (GE Healthcare 28958325) was immobilized to a Series S Sensor Chip C1 (GE Healthcare 29104990) using standard amine coupling chemistry resulting in a surface density of approximately 500 resonance units (RU). The bispecific anti-VEGF/anti-IL-1beta Fab fragment was captured to the surface with resulting capture levels of approximately 20 RU. A dilution series ranging from 0.74 to 60 nM (1:3 dilution) of either human IL-1 beta (PeproTech 200-01B) or cynomolgus IL-1 beta (Sino Biological 90010-CNAE) was injected for 90 s, dissociation was monitored for at least 600 s at a flow rate of 30 μl/min. The surface was regenerated by two consecutive injections of 10 mM Glycine pH 2.1 for 60 s each. Bulk refractive index differences were corrected by subtracting blank injections and by subtracting the response obtained from the control flow cell without captured bispecific anti-VEGF/anti-IL-1beta Fab fragment. Curve fitting was performed using the 1:1 Langmuir binding model within the Biacore evaluation software.
Binding kinetics to VEGF and IL-1beta for the candidate antibodies were assessed as described in Example 3 using the indicated bispecific anti-VEGF/anti-IL-1beta Fab fragments (amino acid sequence as illustrated in Table 3). For comparison, antigen binding kinetics of prior art anti-VEGF/anti-IL-1beta antibody 0032, a full length IgG antibody, as disclosed in WO2016/075034 are depicted.

human VEGF121 [3] = target: T1, human VEGF121; assay: competition ELISA: Fab preincubated with VEGF121, free VEGF121 bound to coated rhVEGFR-1-Fc detected; sheet title 'Competition ELISA VEGFR1-Fc, 8 pM VEGF121'
Procedure: 96-well-Plates (Maxisorp Nunc-Immoplates) were coated with 50 μL/well rhVEGFR-1-Fc (R&D #321-FL-050) at a final concentration of 1 μg/ml in 200 mM NaHC0₃, pH 9.4 for 1 hour at room temperature.
Meanwhile, antibody Fab fragments of different concentrations were preincubated with VEGF for form an antibody Fab-VEGF premix as follows: A dilution series of antibody Fab fragment was prepared by adding 280 μl of a solution of antibody Fab fragments (409.6 nM antibody in PBST-1% BSA) into the wells of the first column of a round bottom 96-well PS plate. The individual wells of columns 2-12 of the same plate were filled with 140 μl PBST-1% BSA. Subsequently, 1:2 dilutions were performed by transferring 140 μl of the antibody solution into the next column, thorough mixing and proceed with transferring 140 μl of this diluted antibody solution to the next column. This is repeated until column 11. Excess of 140 μl were discarded so that all wells comprise 140 μl. Column 12 served as the control (blank). […] 50 μl of the dilution series of the respective antibody Fab fragment were added to the VEGF121, or VEGF165, respectively; mixed thoroughly and incubated for 1.5 hours at room temperature.
The rhVEGFR-1-Fc coated plates were washed two times with PBST and blocked for 45 min with 200 μl of 2% MPBST. After washing off the MPBST solution twice with PBST, 50 μl of the antibody Fab-VEGF premix were added to the plate and incubated for 1.5 hours at room temperature. Subsequently, the plates were washed twice with PBST. Then, 50 μl of a solution comprising biotinylated anti-VEGF antibody (R&D, BAF293; 1:2000 dilution in PBST) and SA-HRP (KPL, 14-30-00; 1:2000 dilution in PBST) was added and incubated for 30 min at room temperature. After 6× washing with PBST, 50 μl of TMB substrate solution (two-component HRP substrate (KPL, 34021); used at room temperature) was added and incubated for 30 min at room temperature. 50 μl of 1N H₂SO₄ was added and absorbance was read at 450 nm.

[4] = target: T3, human IL-1 beta (PeproTech 200-01B) (human, UniProt P01584 117-269); assay: SPR competition: Fab preincubated with 50 nM IL-1beta, injected over immobilised IL-1bR1 (competitor); in presence of VEGF
T3 construct: As printed it covers only the N-terminal part of the precursor, so it was not used; also called huIL-1 beta; IL1β
Procedure: as §1, §2, §3

IC50 (human VEGF121 [1]): 39 nM | Kd [2]: 0.027 nM | koff [2]: 7.94e-05 s⁻¹ | kon [2]: 2.97e+06 M⁻¹ s⁻¹ | t½ [2]: 2.43 h | IC50 (read off the curve) (human VEGF121 [3]): ~0.04 nM | IC50 [4]: 24 nM
B1: bispecific anti-VEGF/anti-IL-1beta Fab fragment RO7200394 (Fab, V domains shown)
VH: DEQLVESGGGLVKPGGSLRLSCAAEGMVFKWNDMSWVRQAPGKGLEWVGSISKKGDHKYLNTKFIGRFTISRDNEKDTLYLQMNSLRAEDTAVYYCAKDVGFFDIWGQGTLVTVSS
VL: AIYMHQEPSSLSASVGDRVTITCHGSYWLSSLVAWYQQKPGKAPKLLIYDAKYKHLGVPSRFSGSKEDQEFTLTISSLQPEDFATYYCQQYRYHPYTFGHGTKVEIKR
notes: same variable domains as 1HVL12.85; also called R07200394
